Experimental findings from PMC7054171 are described below.

The assay deals with GST tagged Cdc42 Q61L (human) (UniProt P60953). In words: pull-down.
Chain of GST tagged Cdc42 Q61L (human) (P60953 whole entry Q61L): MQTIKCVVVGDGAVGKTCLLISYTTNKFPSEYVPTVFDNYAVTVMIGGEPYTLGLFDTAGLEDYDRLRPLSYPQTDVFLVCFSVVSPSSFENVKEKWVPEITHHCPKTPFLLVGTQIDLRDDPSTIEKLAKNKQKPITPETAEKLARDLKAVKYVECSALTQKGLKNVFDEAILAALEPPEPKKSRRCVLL

With “mVenus-Z-lock-WASP dark (zDK2-GS0-CBD-LOV2, dark state variant) (from UniProt P42768 230-288; O49003 404-546) (designed binder)”, the fold reduction in binding against the lit state variant is > 5 fold.
